T1: Biot-C7 peptide (human ChemR23 peptide, SEQ ID No. 60) (Homo sapiens, UniProt Q99788)
T1 construct: purchased synpeptide; host or cells: chemical synthesis
T1 sequence (Q99788 275-307 limits assumed): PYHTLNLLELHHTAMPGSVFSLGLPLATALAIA

B1: HDLD: humanized 2G1 variant: combination of SEQ ID No. 43 and SEQ ID No. 53 (antibody, V domains shown)
VH: EVQLVESGGGLVQPGGSLRLSCAASGFTFSSYAMSWVRQAPGKGLELVATINRYGGSTYYAASVKGRFTISRDNSKNTLYLQMNSLRAEDTAVYYCPKLIYYGNEGDSWGQGTLVTVSS
VL: AIQLTQSPSSLSASVGDRVTITCRASQSVSFLHWYQQKPGKAPKRWIYDATKLTSGVPSRFSGSGSGTDFTLTISSLQPEDFATYYCQQWQSKPPLTFGGGTKVEIK
B2: HEF-LDT52S: humanized 2G1 variant optimized to reduce immunogenicity: HEF (SEQ ID NO: 91) with LD-T52S (SEQ ID No. 93) (antibody, V domains shown)
VH: EVQLVESGGGLVQPGGSLRLSCAASGFTFSSYAMSWVRQAPGKGLELVSTISGSGGSTYYAASVKGRFTISRDNSKNTLYLQMNSLRAEDTAVYYCPKLIYYGNEGDSWGQGTLVTVSS
VL: AIQLTQSPSSLSASVGDRVTITCRASQSVSFLHWYQQKPGKAPKRWIYDASKLTSGVPSRFSGSGSGTDFTLTISSLQPEDFATYYCQQWQSKPPLTFGGGTKVEIK
B3: HALA: humanized 2G1 germline antibody: combination of SEQ ID No. 41 and SEQ ID No. 50 (antibody, V domains shown)
VH: EVQLVESGGGLVQPGGSLRLSCAASGFTFSSYGMSWVRQAPGKGLELVATINRYGGSTYYPDSVKGRFTISRDNSKNTLYLQMNSLRAEDTAVYYCPRLIYYGNEGDSWGQGTLVTVSS
VL: AIQLTQSPSSLSASVGDRVTITCSASSSVSFMHWYQQKPGKAPKRWIYDTTKLTSGVPSRFSGSGSGTDYTLTISSLQPEDFATYYCQQWNSKPPLTFGGGTKVEIK

Key:
[1] = system: PMN from healthy volunteers; experiment: Percentage of dead PMN (mortality of neutrophils) on coated antibodies; type: cell-based, human; settings: for mortality of PMN (percentage of dead PMN): coated Ab at 10 μg/mL, 24 h, FIG. 26, FIG. 36
Description: […] Mortality of PMN was analyzed by incubating PMN with specific markers of the mortality and viability and then counted by picture analysis.
(§1) FIG. 36—Increase of dead PMN neutrophils in vitro with anti-ChemR23 antibodies coated. PMN from healthy volunteers were incubated in culture medium with coated HEF-LDT52S, HEF-LEF and HDLD antibody variants at 10 μg/mL for 24 h and stained either with a dead/viability kit (LIVE/DEAD (Invitrogen)). The percentages of positive cells were obtained by analyzing the pictures with Fiji software. Isotype control was added as control.
(§2) PMN from healthy volunteers were incubated in culture medium with coated Ab at 10 μg/mL for 24 h or 5 h and stained either with a dead/viability kit (LIVE/DEAD (Invitrogen)) or a specific marker of reactive oxygen species (ROS) respectively. The percentages of positive cells were obtained by analyzing the pictures with ImageJ software.
as §1, with “PMN” for “FIG. 36—Increase of dead PMN neutrophils in vitro with anti-ChemR23 antibodies coated. PMN”

[2] = molecular target: T1, Biot-C7 peptide (human ChemR23 peptide, SEQ ID No. 60); experiment: activity ELISA assay, binding of biotinylated C7 peptide; settings: compared to wild-type 2G1; FIG. 23, FIG. 33
Excerpt: FIG. 23. Binding recognition of C7 peptide by humanized anti-CMKLR1 derived from 2G1. Binding of C7biot in the supernatant of CHO cells transfected with different combinations of heavy and light chains (VHWT+VLWT: combination of SEQ ID No. 37 and SEQ ID No. 49; HCLC: combination of SEQ ID No. 42 and SEQ ID No.52; HDLC: combination of SEQ ID No. 43 and SEQ ID No.52; HCLD: combination of SEQ ID No. 42 and SEQ ID No.53; HDLD: combination of SEQ ID No. 43 and SEQ ID No.53).
FIG. 24. ED50 of anti-CMKLR1 derived from 2G1 antibody. 2G1 wt: HALA: combination of SEQ ID No. 41 and SEQ ID No. 50; combination of SEQ ID No. 37 and SEQ ID No. 49; HCLC: combination of SEQ ID No. 42 and SEQ ID No.52; HDLC: combination of SEQ ID No. 43 and SEQ ID No.52; HCLD: combination of SEQ ID No. 42 and SEQ ID No.53; HDLD: combination of SEQ ID No. 43 and SEQ ID No.53.
FIG. 33—Binding of purified antibodies on human ChemR23 peptide by ELISA assay (A), with ED50 concentration (ng/ml) (B). For activity ELISA assay, donkey anti-human IgG, Fc specific (Jackson Immunoresearch; USA; reference 709-005-098) was immobilized on plastic at 1.3 μg/ml in borate buffer (pH9) and purified antibody was added to measure binding in BSA1% buffer, compared to wild-type 2G1.
For activity ELISA assay, donkey anti-human IgG, Fc specific (Jackson Immunoresearch; USA; reference 709-005-098) was immobilized on plastic at 1.3 μg/ml in borate buffer (pH9) and purified antibody were added to measure binding in BSA1% buffer, compared to wild-type 2G1.
For activity ELISA assay, donkey anti-human IgG, Fc specific (Jackson Immunoresearch; USA; reference 709-005-098) was immobilized on plastic at 1.3 μg/ml in borate buffer (pH9) and purified antibody was added to measure binding in BSA1% buffer, compared to wild-type 2G1.

[3] = Stability assay (7 days at 4° C. or 37° C.; ELISA and gel filtration); type: physicochemical; settings: after 7 days at 37° C.; gel filtration; FIG. 34B
Description: FIG. 34—A. Binding of purified antibodies incubated 7 days at 4° C. or 37° C. on human ChemR23 ELISA assay. B. SEC profile by gel filtration chromatography of purified antibodies incubated 7 days at 37° C. Each purified humanized anti-ChemR23 antibody (HALA, HDLD, HD-LDT52S, HEF-LDT52S, HEF-LEF) were incubated for 7 days at 4° C. or 37° C. After 7 days, the binding of purified antibodies was analyzed by ELISA assay and the aggregate formation was analyzed by gel filtration (Superdex 200 10/300GL, GeHealthcare).
Each purified humanized anti-ChemR23 antibody (HALA, HDLD, HD-LDT52S, HEF-LDT52S, HEF-LEF) were incubated for 7 days at 4° C. or 37° C. After 7 days, the binding of purified antibodies was analyzed by ELISA assay and the aggregate formation was analyzed by gel filtration (Superdex 200 10/300GL, GeHealthcare).

[4] = system: CCR7 expression at the surface of pro-inflammatory macrophages M1; experiment: CCR7 expression on M1 macrophages with coated antibodies; type: cell-based, human; settings: antibody coated on plate, 48 h, flow cytometry; vs isotype control; FIG. 25, FIG. 35
Description: FIG. 25. Inhibition of CCR7 expression on M1 macrophages cells in vitro with anti-ChemR23 antibodies coated. 2G1 and all humanized 2G1 variants (HALA, HCLC, HCLD, HDLC and HDLD) were immobilized on plate. Isotype control were added as controls. Two isotypes which prevent FcRγ binding, i.e., 2G1-N297A (2G1 wt mutated in N297A to reduce FcγR binding), and 2G4 (wt with isotype IgG4mutated in S228P to stabilise hinge region) were also added. Pro-inflammatory macrophages M1 were added on coated plate for 48 h, and CCR7 expression at the surface of the macrophages was measured by flow cytometry.
FIG. 35—Inhibition of CCR7 expression on M1 macrophages cells in vitro with anti-ChemR23 antibody coated. The humanized 2G1 variant HEF-LD-T52S was immobilized on plate. Isotype control were added as controls. Pro-inflammatory macrophages M1 were added on coated plate, and CCR7 expression at the surface of the macrophages was measured by flow cytometry.
MATERIAL AND METHODS. […]
RESULTS. […] Pro-inflammatory macrophages M1 were added on coated plate for 48 h, and CCR7 expression at the surface of the macrophages was measured by flow cytometry.
The humanized 2G1 variant HEF-LD-T52S was immobilized on plate. […] Pro-inflammatory macrophages M1 were added on coated plate for 48 h, and CCR7 expression at the surface of the macrophages was measured by flow cytometry. […]

[5] = system: Caspase-3 in PMN from healthy volunteers; experiment: Caspase-3 expression in PMN by Western Blot; type: cell-based, human; settings: coated Ab at 10 μg/mL, FIG. 26B
Description: (§3) Neutrophils were isolated from blood of healthy volunteers and cultured for 24 h (Mortality analysis), or 4 h, 6 h, 11 h (Caspase-3 assay), or 5 h (ROS assay) on coated Iso ctrl (cross), chimeric anti-ChemR23 2G1 (square) or different humanized versions of the 2G1 (diamonds). Mortality of PMN was analyzed by incubating PMN with specific markers of the mortality and viability and then counted by picture analysis.
PMN from healthy volunteers were incubated in culture medium with coated Ab at 10 μg/mL for different times and collected for Caspase-3 staining analyzed by Western Blot. The intensity of Capase-3 expression was calculated on WB.

[6] = system: ROS production by PMN from healthy volunteers; experiment: ROS test in PMN; type: cell-based, human; settings: coated Ab at 10 μg/mL, after 5 h; FIG. 26C
Description: as §3, §2

Molecule	mortality of PMN (percentage of dead PMN) [1]	binding activity to antigen-specific peptides (C7 peptide) [2]	percentage of aggregate [3]	expression of CCR7 at the surface of pro-inflammatory macrophages (M1) [4]	percentage of dead cells ([1]; at 48 hours, compared with IgG1 control)	caspase-3 cleavage ([5]; 4 h, 6 h, 11 h)	caspase-3 activity [5]	ROS production by PMN [6]
B1	accelerate the death of PMN	even better than the germline antibody HALA and the wild type antibody 2G1	did not change					
B2	accelerate the death of PMN	high binding activity	did not change	able to decrease expression of CCR7				
B3					similar	increases caspase-3 cleavage	higher effect on caspase 3 activity as compared to the 2G1 antibody	increase the ROS production

From patent publication US12534533B2, “Anti-chemokine like receptor 1 humanized antibodies and their therapeutic applications” (OSE IMMUNOTHERAPEUTICS, priority 2019, dated 2026)
